Assay results reported in patent publication US20190300618A1 (Merck Sharp & Dohme, published 2019).
Substitutions are numbered along the chain they refer to.

How the values were obtained:
Assay in all cases: flow cytometry, CHO-K1; single column;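 also: CHO-K1 cells transiently transfected with hCD27 alanine mutant constructs, anti-hCD27 antibody binding measured by flow cytometry, 30 min at 4 °C, wild-type hCD27 binding taken as 100%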
[1] = molecular target: T1, W13A
T1 construct: also called hCD27 W13A
T1 receptor: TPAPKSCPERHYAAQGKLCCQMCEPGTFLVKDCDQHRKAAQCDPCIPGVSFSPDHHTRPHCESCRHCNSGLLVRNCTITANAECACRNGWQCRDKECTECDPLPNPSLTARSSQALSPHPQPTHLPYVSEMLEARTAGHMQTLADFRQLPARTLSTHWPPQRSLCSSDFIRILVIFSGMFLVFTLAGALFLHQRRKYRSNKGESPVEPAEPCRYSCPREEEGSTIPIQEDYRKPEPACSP

[2] = molecular target: T2, G89A
T2 construct: also called hCD27 G89A
T2 receptor: T1 receptor with A13W, G89A

[3] = molecular target: T3, R37A
T3 construct: also called hCD27 R37A
T3 receptor: T1 receptor with A13W, R37A

[4] = molecular target: T4, V30A
T4 construct: also called hCD27 V30A
T4 receptor: T1 receptor with A13W, V30A

[5] = molecular target: T5, D32A
T5 construct: also called hCD27 D32A
T5 receptor: T1 receptor with A13W, D32A

[6] = molecular target: T6, P44A
T6 construct: also called hCD27 P44A
T6 receptor: T1 receptor with A13W, P44A

[7] = molecular target: T7, G16A
T7 construct: also called hCD27 G16A
T7 receptor: T1 receptor with A13W, G16A

[8] = molecular target: T8, I46A
T8 construct: also called hCD27 I46A
T8 receptor: T1 receptor with A13W, I46A

[9] = molecular target: T9, E9A
T9 construct: also called hCD27 E9A
T9 receptor: T1 receptor with E9A, A13W

[10] = molecular target: T10, H60A
T10 construct: also called hCD27 H60A
T10 receptor: T1 receptor with A13W, H60A

- % of WT hCD27 binding (geo mean FITC) [1]: 71.4%
- % of WT hCD27 binding (geo mean FITC) [2]: 97.4%
- % of WT hCD27 binding (geo mean FITC) [3]: 106%
- % of WT hCD27 binding (geo mean FITC) [4]: 82.6%
- % of WT hCD27 binding (geo mean FITC) [5]: 50.6%
- % of WT hCD27 binding (geo mean FITC) [6]: 68.7%
- % of WT hCD27 binding (geo mean FITC) [7]: 141%
- % of WT hCD27 binding (geo mean FITC) [8]: 81.9%
- % of WT hCD27 binding (geo mean FITC) [9]: 58.5%
- % of WT hCD27 binding (geo mean FITC) [10]: 82.6%
B1: hCD27.15-6B (humanized hCD27.15, human IgG4, Clone 6B) (antibody, V domains shown)
VH: QVQLVQSGAEVKKPGASVKVSCKASGFIIKATYMHWVRQAPGQRLEWMGRIDPANGETKYDPKFQVRVTITADTSASTAYMELSSLRSEDTAVYYCARYAWYFDVWGQGTLVTVSS
VL: DIQMTQSPSSLSASVGDRVTITCRASENIYSFLAWYQQKPGKAPKLLIYHAKTLAEGVTSRFSGSGSGTDFTLTISSLQPEDSATYYCQHYYGSPLTFGQGTRLEIKR
notes: humanized version of hCD27.15 from WO2012/004367 with identical CDR regions; also called hCD27.15 (humanized 6B); hCD27.15 6B humanized antibody
